Source: paper PMC3160285, “Fukutin-Related Protein Resides in the Golgi Cisternae of Skeletal Muscle Fibres and Forms Disulfide-Linked Homodimers via an N-Terminal Interaction” (PLoS ONE, 2011)

Key:
[1] = molecular target: FKRP Cys317Ser/Cys318Ser (human) (UniProt Q9H9S5); assay: SDS-PAGE (non-reducing and reducing) with Western blot; cleared COS-7 lysates prepared with 5 mM NEM; untreated or reduced with 330-400 mM DTT at RT for 30 min; 4-12% gel; detection with FKRP207 antibody
[2] = molecular target: the molecule itself; assay: as above

Row | Molecule | stoichiometry N [1] | stoichiometry N [2]
1 | FKRP Cys317Ser/Cys318Ser (from UniProt Q9H9S5 1-495) (natural protein) | 2 | –
2 | FKRP-157 (C-terminal truncation mutant of FKRP) (domain or fragment, human, UniProt Q9H9S5 1-157, looked up, fukutin-related protein (FKRP), human; source: COS-7, transfected, in lysate (5 mM NEM)) MRLTRCQAALAAAITLNLLVLFYVSWLQHQPRNSRARGPRRASAAGPRVTVLVREFEAFDNAVPELVDSFLQQDPAQPVVVAADTLPYPPLALPRIPNVRLALLQPALDRPAAASRPETYVATEFVALVPDGARAEAPGLLERMVEALRAGSARLVA | – | 2
3 | FKRP-282 (C-terminal truncation mutant of FKRP) (domain or fragment, human, UniProt Q9H9S5 1-282, looked up, fukutin-related protein (FKRP), human; C-terminal truncation, last amino acid 282; source: COS-7, transfected, in lysate (5 mM NEM)) MRLTRCQAALAAAITLNLLVLFYVSWLQHQPRNSRARGPRRASAAGPRVTVLVREFEAFDNAVPELVDSFLQQDPAQPVVVAADTLPYPPLALPRIPNVRLALLQPALDRPAAASRPETYVATEFVALVPDGARAEAPGLLERMVEALRAGSARLVAAPVATANPARCLALNVSLREWTARYGAAPAAPRCDALDGDAVVLLRARDLFNLSAPLARPVGTSLFLQTALRGWAVQLLDLTFAAARQPPLATAHARWKAEREGRARRAALLRALGIRLVSWEGG | – | 2
4 | FKRP-373 (C-terminal truncation mutant of FKRP) (domain or fragment, human, UniProt Q9H9S5 1-373, looked up, fukutin-related protein (FKRP), human; C-terminal truncation, last amino acid 373; source: COS-7, transfected, in lysate (5 mM NEM)) MRLTRCQAALAAAITLNLLVLFYVSWLQHQPRNSRARGPRRASAAGPRVTVLVREFEAFDNAVPELVDSFLQQDPAQPVVVAADTLPYPPLALPRIPNVRLALLQPALDRPAAASRPETYVATEFVALVPDGARAEAPGLLERMVEALRAGSARLVAAPVATANPARCLALNVSLREWTARYGAAPAAPRCDALDGDAVVLLRARDLFNLSAPLARPVGTSLFLQTALRGWAVQLLDLTFAAARQPPLATAHARWKAEREGRARRAALLRALGIRLVSWEGGRLEWFGCNKETTRCFGTVVGDTPAYLYEERWTPPCCLRALRETARYVVGVLEAAGVRYWLEGGSLLGAARHGDIIPWDYDVDLGIYLEDVG | – | 2
5 | FKRP Cys168Ser (natural protein, human, UniProt Q9H9S5 1-495, looked up, fukutin-related protein (FKRP), human, 495 aa, made from pcDNA3.1-FKRP by site-directed mutagenesis; also called FKRP-C168S; source: COS-7, transfected, in lysate (5 mM NEM)) MRLTRCQAALAAAITLNLLVLFYVSWLQHQPRNSRARGPRRASAAGPRVTVLVREFEAFDNAVPELVDSFLQQDPAQPVVVAADTLPYPPLALPRIPNVRLALLQPALDRPAAASRPETYVATEFVALVPDGARAEAPGLLERMVEALRAGSARLVAAPVATANPARSLALNVSLREWTARYGAAPAAPRCDALDGDAVVLLRARDLFNLSAPLARPVGTSLFLQTALRGWAVQLLDLTFAAARQPPLATAHARWKAEREGRARRAALLRALGIRLVSWEGGRLEWFGCNKETTRCFGTVVGDTPAYLYEERWTPPCCLRALRETARYVVGVLEAAGVRYWLEGGSLLGAARHGDIIPWDYDVDLGIYLEDVGNCEQLRGAEAGSVVDERGFVWEKAVEGDFFRVQYSESNHLHVDLWPFYPRNGVMTKDTWLDHRQDVEFPEHFLQPLVPLPFAGFVAQAPNNYRRFLELKFGPGVIENPQYPNPALLSLTGSG | – | 2
6 | FKRP Cys191Ser (natural protein, human, UniProt Q9H9S5 1-495, looked up, fukutin-related protein (FKRP), human, 495 aa, made from pcDNA3.1-FKRP by site-directed mutagenesis; also called FKRP-C191S; source: COS-7, transfected, in lysate (5 mM NEM)) MRLTRCQAALAAAITLNLLVLFYVSWLQHQPRNSRARGPRRASAAGPRVTVLVREFEAFDNAVPELVDSFLQQDPAQPVVVAADTLPYPPLALPRIPNVRLALLQPALDRPAAASRPETYVATEFVALVPDGARAEAPGLLERMVEALRAGSARLVAAPVATANPARCLALNVSLREWTARYGAAPAAPRSDALDGDAVVLLRARDLFNLSAPLARPVGTSLFLQTALRGWAVQLLDLTFAAARQPPLATAHARWKAEREGRARRAALLRALGIRLVSWEGGRLEWFGCNKETTRCFGTVVGDTPAYLYEERWTPPCCLRALRETARYVVGVLEAAGVRYWLEGGSLLGAARHGDIIPWDYDVDLGIYLEDVGNCEQLRGAEAGSVVDERGFVWEKAVEGDFFRVQYSESNHLHVDLWPFYPRNGVMTKDTWLDHRQDVEFPEHFLQPLVPLPFAGFVAQAPNNYRRFLELKFGPGVIENPQYPNPALLSLTGSG | – | 2
7 | FKRP-Asn172Gln/Asn209Gln (natural protein, human, UniProt Q9H9S5 1-495, looked up, fukutin-related protein (FKRP), human, 495 aa, made from pcDNA3.1-FKRP by site-directed mutagenesis; also called double mutant; source: COS-7, transfected, in lysate (5 mM NEM)) MRLTRCQAALAAAITLNLLVLFYVSWLQHQPRNSRARGPRRASAAGPRVTVLVREFEAFDNAVPELVDSFLQQDPAQPVVVAADTLPYPPLALPRIPNVRLALLQPALDRPAAASRPETYVATEFVALVPDGARAEAPGLLERMVEALRAGSARLVAAPVATANPARCLALQVSLREWTARYGAAPAAPRCDALDGDAVVLLRARDLFQLSAPLARPVGTSLFLQTALRGWAVQLLDLTFAAARQPPLATAHARWKAEREGRARRAALLRALGIRLVSWEGGRLEWFGCNKETTRCFGTVVGDTPAYLYEERWTPPCCLRALRETARYVVGVLEAAGVRYWLEGGSLLGAARHGDIIPWDYDVDLGIYLEDVGNCEQLRGAEAGSVVDERGFVWEKAVEGDFFRVQYSESNHLHVDLWPFYPRNGVMTKDTWLDHRQDVEFPEHFLQPLVPLPFAGFVAQAPNNYRRFLELKFGPGVIENPQYPNPALLSLTGSG | – | 2
8 | FKRP Cys375Ser (natural protein, human, UniProt Q9H9S5 1-495, looked up, fukutin-related protein (FKRP), human, 495 aa, made from pcDNA3.1-FKRP by site-directed mutagenesis; also called FKRP-C375S; source: COS-7, transfected, in lysate (5 mM NEM)) MRLTRCQAALAAAITLNLLVLFYVSWLQHQPRNSRARGPRRASAAGPRVTVLVREFEAFDNAVPELVDSFLQQDPAQPVVVAADTLPYPPLALPRIPNVRLALLQPALDRPAAASRPETYVATEFVALVPDGARAEAPGLLERMVEALRAGSARLVAAPVATANPARCLALNVSLREWTARYGAAPAAPRCDALDGDAVVLLRARDLFNLSAPLARPVGTSLFLQTALRGWAVQLLDLTFAAARQPPLATAHARWKAEREGRARRAALLRALGIRLVSWEGGRLEWFGCNKETTRCFGTVVGDTPAYLYEERWTPPCCLRALRETARYVVGVLEAAGVRYWLEGGSLLGAARHGDIIPWDYDVDLGIYLEDVGNSEQLRGAEAGSVVDERGFVWEKAVEGDFFRVQYSESNHLHVDLWPFYPRNGVMTKDTWLDHRQDVEFPEHFLQPLVPLPFAGFVAQAPNNYRRFLELKFGPGVIENPQYPNPALLSLTGSG | – | 2
9 | FKRP-Cys289Ser (natural protein, human, UniProt Q9H9S5 1-495, looked up, fukutin-related protein (FKRP), human, 495 aa, made from pcDNA3.1-FKRP by site-directed mutagenesis; also called FKRP-C289S; source: COS-7, transfected, in lysate (5 mM NEM)) MRLTRCQAALAAAITLNLLVLFYVSWLQHQPRNSRARGPRRASAAGPRVTVLVREFEAFDNAVPELVDSFLQQDPAQPVVVAADTLPYPPLALPRIPNVRLALLQPALDRPAAASRPETYVATEFVALVPDGARAEAPGLLERMVEALRAGSARLVAAPVATANPARCLALNVSLREWTARYGAAPAAPRCDALDGDAVVLLRARDLFNLSAPLARPVGTSLFLQTALRGWAVQLLDLTFAAARQPPLATAHARWKAEREGRARRAALLRALGIRLVSWEGGRLEWFGSNKETTRCFGTVVGDTPAYLYEERWTPPCCLRALRETARYVVGVLEAAGVRYWLEGGSLLGAARHGDIIPWDYDVDLGIYLEDVGNCEQLRGAEAGSVVDERGFVWEKAVEGDFFRVQYSESNHLHVDLWPFYPRNGVMTKDTWLDHRQDVEFPEHFLQPLVPLPFAGFVAQAPNNYRRFLELKFGPGVIENPQYPNPALLSLTGSG | – | 2
10 | FKRP-Asn172Gln (natural protein, human, UniProt Q9H9S5 1-495, looked up, fukutin-related protein (FKRP), human, 495 aa, made from pcDNA3.1-FKRP by site-directed mutagenesis; source: COS-7, transfected, in lysate (5 mM NEM)) MRLTRCQAALAAAITLNLLVLFYVSWLQHQPRNSRARGPRRASAAGPRVTVLVREFEAFDNAVPELVDSFLQQDPAQPVVVAADTLPYPPLALPRIPNVRLALLQPALDRPAAASRPETYVATEFVALVPDGARAEAPGLLERMVEALRAGSARLVAAPVATANPARCLALQVSLREWTARYGAAPAAPRCDALDGDAVVLLRARDLFNLSAPLARPVGTSLFLQTALRGWAVQLLDLTFAAARQPPLATAHARWKAEREGRARRAALLRALGIRLVSWEGGRLEWFGCNKETTRCFGTVVGDTPAYLYEERWTPPCCLRALRETARYVVGVLEAAGVRYWLEGGSLLGAARHGDIIPWDYDVDLGIYLEDVGNCEQLRGAEAGSVVDERGFVWEKAVEGDFFRVQYSESNHLHVDLWPFYPRNGVMTKDTWLDHRQDVEFPEHFLQPLVPLPFAGFVAQAPNNYRRFLELKFGPGVIENPQYPNPALLSLTGSG | – | 2
11 | Fukutin-related protein (FKRP), human, wild type, untagged (pcDNA3.1-FKRP) (natural protein, UniProt Q9H9S5 1-495, looked up, N-linked glycans of high mannose and/or hybrid type at Asn172 and Asn209, fukutin-related protein (FKRP), human, 495 aa; Same construct expressed in two cell lines; the assay's format names the cell line; also called hFKRP; full length FKRP; source: COS-7 or BHK-21, transfected (pcDNA3.1-FKRP), in lysate) MRLTRCQAALAAAITLNLLVLFYVSWLQHQPRNSRARGPRRASAAGPRVTVLVREFEAFDNAVPELVDSFLQQDPAQPVVVAADTLPYPPLALPRIPNVRLALLQPALDRPAAASRPETYVATEFVALVPDGARAEAPGLLERMVEALRAGSARLVAAPVATANPARCLALNVSLREWTARYGAAPAAPRCDALDGDAVVLLRARDLFNLSAPLARPVGTSLFLQTALRGWAVQLLDLTFAAARQPPLATAHARWKAEREGRARRAALLRALGIRLVSWEGGRLEWFGCNKETTRCFGTVVGDTPAYLYEERWTPPCCLRALRETARYVVGVLEAAGVRYWLEGGSLLGAARHGDIIPWDYDVDLGIYLEDVGNCEQLRGAEAGSVVDERGFVWEKAVEGDFFRVQYSESNHLHVDLWPFYPRNGVMTKDTWLDHRQDVEFPEHFLQPLVPLPFAGFVAQAPNNYRRFLELKFGPGVIENPQYPNPALLSLTGSG | – | 2
12 | FKRP-Asn209Gln (natural protein, human, UniProt Q9H9S5 1-495, looked up, fukutin-related protein (FKRP), human, 495 aa, made from pcDNA3.1-FKRP by site-directed mutagenesis; source: COS-7, transfected, in lysate (5 mM NEM)) MRLTRCQAALAAAITLNLLVLFYVSWLQHQPRNSRARGPRRASAAGPRVTVLVREFEAFDNAVPELVDSFLQQDPAQPVVVAADTLPYPPLALPRIPNVRLALLQPALDRPAAASRPETYVATEFVALVPDGARAEAPGLLERMVEALRAGSARLVAAPVATANPARCLALNVSLREWTARYGAAPAAPRCDALDGDAVVLLRARDLFQLSAPLARPVGTSLFLQTALRGWAVQLLDLTFAAARQPPLATAHARWKAEREGRARRAALLRALGIRLVSWEGGRLEWFGCNKETTRCFGTVVGDTPAYLYEERWTPPCCLRALRETARYVVGVLEAAGVRYWLEGGSLLGAARHGDIIPWDYDVDLGIYLEDVGNCEQLRGAEAGSVVDERGFVWEKAVEGDFFRVQYSESNHLHVDLWPFYPRNGVMTKDTWLDHRQDVEFPEHFLQPLVPLPFAGFVAQAPNNYRRFLELKFGPGVIENPQYPNPALLSLTGSG | – | 2
13 | FKRP Cys296Ser (natural protein, human, UniProt Q9H9S5 1-495, looked up, fukutin-related protein (FKRP), human, 495 aa, made from pcDNA3.1-FKRP by site-directed mutagenesis; also called FKRP-C296S; source: COS-7, transfected, in lysate (5 mM NEM)) MRLTRCQAALAAAITLNLLVLFYVSWLQHQPRNSRARGPRRASAAGPRVTVLVREFEAFDNAVPELVDSFLQQDPAQPVVVAADTLPYPPLALPRIPNVRLALLQPALDRPAAASRPETYVATEFVALVPDGARAEAPGLLERMVEALRAGSARLVAAPVATANPARCLALNVSLREWTARYGAAPAAPRCDALDGDAVVLLRARDLFNLSAPLARPVGTSLFLQTALRGWAVQLLDLTFAAARQPPLATAHARWKAEREGRARRAALLRALGIRLVSWEGGRLEWFGCNKETTRSFGTVVGDTPAYLYEERWTPPCCLRALRETARYVVGVLEAAGVRYWLEGGSLLGAARHGDIIPWDYDVDLGIYLEDVGNCEQLRGAEAGSVVDERGFVWEKAVEGDFFRVQYSESNHLHVDLWPFYPRNGVMTKDTWLDHRQDVEFPEHFLQPLVPLPFAGFVAQAPNNYRRFLELKFGPGVIENPQYPNPALLSLTGSG | – | 2
